Laboratory results from the supplement of paper PMC7125110.
± gives the standard error. For some of these results: Variants at the floor of the assay were thinned out.

B1: glmS ribozyme (parent)
chain: AUAAAAGCGCCAGAACUACAGAAAUGUAGUUGACGAGGAGGAGGUUUAUCGAAUUUUCGGCGGAUGCCUCCAAA

What was measured:
Details in all cases: with glucosamine-6-phosphate
glucosamine-6-phosphate [1] = variants of: B1; test: kcat; higher = faster cleavage; RNA array
How it was run: (§1)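 Weighted Michaelis–Menten fits across concentrations supplied kcat and KM, based on kobs from one- or two-exponential decay fits to normalised per-tile medians. The data came from barcoded ribozyme variants transcribed in situ by E. coli RNA polymerase on sequenced MiSeq chips and tracked at 37 °C by a hybridised Cy3 probe. Glucosamine-6-phosphate (40 μM to 10 mM) in HEPES/KCl/Mg(OAc)2 buffer was flowed in.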

glucosamine-6-phosphate [2] = variants of: B1; test: self-cleavage kobs at 40 uM GlcN6P; higher = faster cleavage; RNA array
How it was run: as §1

glucosamine-6-phosphate [3] = variants of: B1; test: self-cleavage kobs at 160 uM GlcN6P; higher = faster cleavage; RNA array
How it was run: as §1

glucosamine-6-phosphate [4] = variants of: B1; test: self-cleavage kobs at 640 uM GlcN6P; higher = faster cleavage; RNA array
How it was run: as §1

glucosamine-6-phosphate [5] = variants of: B1; test: self-cleavage kobs at 10000 uM GlcN6P; higher = faster cleavage; RNA array
How it was run: as §1

glucosamine-6-phosphate [6] = variants of: B1; test: self-cleavage kobs at 2500 uM GlcN6P; higher = faster cleavage; RNA array
How it was run: as §1

glucosamine-6-phosphate [7] = variants of: B1; test: KM; higher = weaker cofactor use; RNA array
How it was run: as §1

Row | Variant | kcat (glucosamine-6-phosphate [1]) | self-cleavage kobs at 40 uM GlcN6P (glucosamine-6-phosphate [2]) | self-cleavage kobs at 160 uM GlcN6P (glucosamine-6-phosphate [3]) | self-cleavage kobs at 640 uM GlcN6P (glucosamine-6-phosphate [4]) | self-cleavage kobs at 10000 uM GlcN6P (glucosamine-6-phosphate [5]) | self-cleavage kobs at 2500 uM GlcN6P (glucosamine-6-phosphate [6]) | KM (glucosamine-6-phosphate [7])
1 | A39U U54G | 0.0173 ± 0.0074 s⁻¹ | 0.000704 ± 0.00014 s⁻¹ | 0.00169 ± 0.00043 s⁻¹ | 0.00453 ± 0.001 s⁻¹ | 0.018 ± 0.0044 s⁻¹ | – | –
2 | G37C C50U | < 1e-05 s⁻¹ | – | – | – | < 1e-05 s⁻¹ | – | –
3 | A36C U49G | 0.00221 ± 0.00064 s⁻¹ | 6.21e-05 ± 2.5e-05 s⁻¹ | – | 0.000416 ± 0.00011 s⁻¹ | 0.00186 ± 0.00031 s⁻¹ | 0.000851 ± 0.00021 s⁻¹ | –
4 | G37U C50A | < 1e-05 s⁻¹ | – | – | < 1e-05 s⁻¹ | < 1e-05 s⁻¹ | – | –
5 | G40A C67U | 0.000237 ± 3.9e-05 s⁻¹ | – | 2.41e-05 ± 1.1e-05 s⁻¹ | 9.44e-05 ± 9.9e-06 s⁻¹ | 0.000189 ± 2.6e-05 s⁻¹ | 0.000218 ± 2.6e-05 s⁻¹ | 964 ± 350 µM
6 | G37C G51A | < 1e-05 s⁻¹ | – | < 1e-05 s⁻¹ | – | – | – | –
7 | A36U U49G | 2.84e-05 ± 1.2e-05 s⁻¹ | < 1e-05 s⁻¹ | – | – | – | 3.43e-05 ± 1.7e-05 s⁻¹ | –
8 | G35A G37A G44U U49G C67G | < 1e-05 s⁻¹ | – | – | – | – | < 1e-05 s⁻¹ | –
9 | C34G C71G | 2.07e-05 ± 5.7e-06 s⁻¹ | – | – | – | – | – | –
10 | A39U C50U | 4.51e-05 ± 4.1e-06 s⁻¹ | – | – | – | 3.95e-05 ± 7.1e-06 s⁻¹ | 3.23e-05 ± 9.4e-06 s⁻¹ | 1250 ± 570 µM
11 | A39U C50A | 1.72e-05 ± 1.5e-06 s⁻¹ | – | < 1e-05 s⁻¹ | – | – | – | –
12 | G37C U49G | < 1e-05 s⁻¹ | – | – | – | – | – | –
13 | G40A | 0.0122 ± 0.00085 s⁻¹ | 0.000363 ± 7.8e-06 s⁻¹ | 0.0012 ± 0.00012 s⁻¹ | 0.00372 ± 0.0003 s⁻¹ | 0.0103 ± 0.00063 s⁻¹ | 0.00876 ± 0.0005 s⁻¹ | 1310 ± 110 µM
14 | A39G C70A | 0.000304 ± 4.8e-05 s⁻¹ | 6.17e-05 ± 1.2e-05 s⁻¹ | 0.000136 ± 3.1e-05 s⁻¹ | 0.000306 ± 4.3e-05 s⁻¹ | 0.000303 ± 5e-05 s⁻¹ | 0.000172 ± 7.3e-05 s⁻¹ | 158 ± 60 µM
15 | A39G C70G | 0.000172 ± 3.8e-05 s⁻¹ | 0.000112 ± 1.6e-05 s⁻¹ | 0.000143 ± 2.3e-05 s⁻¹ | 0.000314 ± 4.7e-05 s⁻¹ | 0.000132 ± 1.8e-05 s⁻¹ | 0.000245 ± 3.2e-05 s⁻¹ | –
16 | A36C C68A | 1.33e-05 ± 2.1e-06 s⁻¹ | – | – | – | – | – | –
17 | G38A C58G C70U | 1.98e-05 ± 8.1e-06 s⁻¹ | – | – | – | – | – | –
18 | A36G A53U | 1.3e-05 ± 2.6e-06 s⁻¹ | < 1e-05 s⁻¹ | < 1e-05 s⁻¹ | – | – | – | –
19 | G37A C71G | 0.000188 ± 2.3e-05 s⁻¹ | – | 3.34e-05 ± 1.4e-05 s⁻¹ | 4.08e-05 ± 7.8e-06 s⁻¹ | 0.000155 ± 1.4e-05 s⁻¹ | 9.24e-05 ± 9.5e-06 s⁻¹ | 2370 ± 690 µM
20 | A39U A53G C67G | 0.00494 ± 0.00087 s⁻¹ | 0.000219 ± 3.9e-05 s⁻¹ | – | 0.00186 ± 0.00023 s⁻¹ | 0.00612 ± 0.0016 s⁻¹ | 0.00346 ± 0.00056 s⁻¹ | 963 ± 280 µM
